Experimental data: paper PMC11648230, “Structure–function analysis of tRNA t6A-catalysis, assembly, and thermostability of Aquifex aeolicus TsaD2B2 tetramer in complex with TsaE”

What was measured:
[1] = molecular target: AaTsaD;AaTsaBmut (Aquifex aeolicus;Aquifex aeolicus, UniProt O66986;O66494 1-335;1-200+=WEKKKRG, |internal_change); experiment: EMSA; TsaD2Bmut2 tetramer; EMSA: 1 uM 6-FAM-tRNA, 0-100 uM protein, 2% agarose, 20 mM Tris-HCl/50 mM glycine pH 8.5 running buffer (loading buffer for native gels 20 mM Tris-HCl pH 7.5, 300 mM NaCl, 25% glycerol); MST: 10 nM tRNA, 20 mM PBS pH 7.5, 300 mM NaCl, 0.05% Tween 20, 25 C; settings: protein: recombinant;recombinant; tags: ;C-terminal 6His; chain copies: 2;2; label: 5' 6-FAM; tRNA cloverleaf
Chain of AaTsaD;AaTsaBmut (O66986 whole entry, stated change not applied, chain 1 of 2): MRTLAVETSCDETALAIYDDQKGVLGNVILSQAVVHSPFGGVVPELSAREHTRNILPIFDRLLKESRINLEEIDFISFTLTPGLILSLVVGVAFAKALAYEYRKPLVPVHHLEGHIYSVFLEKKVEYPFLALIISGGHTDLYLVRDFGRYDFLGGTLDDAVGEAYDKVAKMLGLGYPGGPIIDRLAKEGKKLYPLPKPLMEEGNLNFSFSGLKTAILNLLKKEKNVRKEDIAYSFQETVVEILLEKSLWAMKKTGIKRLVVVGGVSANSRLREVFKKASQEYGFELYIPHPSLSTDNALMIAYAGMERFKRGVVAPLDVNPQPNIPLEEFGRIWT
Chain of AaTsaD;AaTsaBmut (chain, as listed by the source |, chain 2 of 2): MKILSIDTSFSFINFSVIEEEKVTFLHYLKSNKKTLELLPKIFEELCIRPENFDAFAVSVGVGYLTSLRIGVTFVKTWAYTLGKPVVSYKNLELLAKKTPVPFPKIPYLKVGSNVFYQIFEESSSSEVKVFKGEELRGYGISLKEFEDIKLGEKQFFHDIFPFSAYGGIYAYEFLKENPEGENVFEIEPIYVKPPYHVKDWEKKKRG

[2] = molecular target: AaTsaD del34-38;AaTsaB (Aquifex aeolicus;Aquifex aeolicus, UniProt O66986;O66494 1-335;1-200, del34-38|); experiment: EMSA; tighter than TsaD2B2; EMSA: 1 uM 6-FAM-tRNA, 0-100 uM protein, 2% agarose, 20 mM Tris-HCl/50 mM glycine pH 8.5 running buffer (loading buffer for native gels 20 mM Tris-HCl pH 7.5, 300 mM NaCl, 25% glycerol); MST: 10 nM tRNA, 20 mM PBS pH 7.5, 300 mM NaCl, 0.05% Tween 20, 25 C; settings: protein: recombinant;recombinant; tags: ;C-terminal 6His; chain copies: 2;2; label: 5' 6-FAM; tRNA cloverleaf
Chain of AaTsaD del34-38;AaTsaB (O66986 other isoform, or with tags, fused parts or gaps del34-38|, chain 1 of 2): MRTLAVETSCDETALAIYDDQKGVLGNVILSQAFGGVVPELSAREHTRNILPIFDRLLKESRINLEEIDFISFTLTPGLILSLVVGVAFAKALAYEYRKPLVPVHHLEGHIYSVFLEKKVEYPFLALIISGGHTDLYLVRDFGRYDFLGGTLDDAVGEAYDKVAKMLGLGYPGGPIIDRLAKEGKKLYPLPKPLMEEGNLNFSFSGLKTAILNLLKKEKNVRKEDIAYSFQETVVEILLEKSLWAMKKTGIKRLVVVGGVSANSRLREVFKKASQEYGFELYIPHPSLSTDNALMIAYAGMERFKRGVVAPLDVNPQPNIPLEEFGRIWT
Chain of AaTsaD del34-38;AaTsaB (chain, as listed by the source del34-38|, chain 2 of 2): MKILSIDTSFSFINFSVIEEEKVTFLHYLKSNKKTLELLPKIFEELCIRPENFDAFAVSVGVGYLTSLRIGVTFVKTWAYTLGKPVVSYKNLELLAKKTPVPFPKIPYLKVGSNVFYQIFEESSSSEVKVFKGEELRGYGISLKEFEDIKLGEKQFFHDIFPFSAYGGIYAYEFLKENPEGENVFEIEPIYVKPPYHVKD

[3] = molecular target: AaTsaD;AaTsaB (Aquifex aeolicus;Aquifex aeolicus, UniProt O66986;O66494 1-335;1-200, |); experiment: MST; not saturated at 100 uM; stronger than AaTsaDB; EMSA: 1 uM 6-FAM-tRNA, 0-100 uM protein, 2% agarose, 20 mM Tris-HCl/50 mM glycine pH 8.5 running buffer (loading buffer for native gels 20 mM Tris-HCl pH 7.5, 300 mM NaCl, 25% glycerol); MST: 10 nM tRNA, 20 mM PBS pH 7.5, 300 mM NaCl, 0.05% Tween 20, 25 C; settings: protein: recombinant;recombinant; tags: ;C-terminal 6His; chain copies: 2;2; label: 5' 6-FAM; tRNA cloverleaf
Chain of AaTsaD;AaTsaB (O66986 whole entry, chain 1 of 2): as the sequence (O66986 whole entry, stated change not applied, chain 1 of 2) above
Chain of AaTsaD;AaTsaB (chain, as listed by the source |, chain 2 of 2): as the sequence (chain, as listed by the source del34-38|, chain 2 of 2) above

[4] = molecular target: TmTsaD;TmTsaB dimer-interface mutant (Thermotoga maritima;Thermotoga maritima, UniProt Q9WXZ2;Q9WZX7 1-327;1-206, |E20A;D21A;L22A;E24A;S26A;Y27A;T28A;E30A;K31A); experiment: EMSA; TsaDB dimer; EMSA: 1 uM 6-FAM-tRNA, 0-100 uM protein, 2% agarose, 20 mM Tris-HCl/50 mM glycine pH 8.5 running buffer (loading buffer for native gels 20 mM Tris-HCl pH 7.5, 300 mM NaCl, 25% glycerol); MST: 10 nM tRNA, 20 mM PBS pH 7.5, 300 mM NaCl, 0.05% Tween 20, 25 C; settings: protein: recombinant;recombinant; tags: ;; copies: 1;1; label: 5' 6-FAM; tRNA cloverleaf
Chain of TmTsaD;TmTsaB dimer-interface mutant (Q9WXZ2 whole entry, stated change not applied, chain 1 of 2): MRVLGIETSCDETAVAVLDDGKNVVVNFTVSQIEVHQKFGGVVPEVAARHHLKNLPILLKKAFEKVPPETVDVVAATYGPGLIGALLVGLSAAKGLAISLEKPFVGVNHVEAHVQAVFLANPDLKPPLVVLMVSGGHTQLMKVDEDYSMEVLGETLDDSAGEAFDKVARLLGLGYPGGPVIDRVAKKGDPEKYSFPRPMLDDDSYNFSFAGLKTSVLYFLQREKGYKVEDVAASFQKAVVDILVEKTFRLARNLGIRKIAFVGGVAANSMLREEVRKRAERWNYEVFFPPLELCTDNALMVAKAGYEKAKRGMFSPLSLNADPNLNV
Chain of TmTsaD;TmTsaB dimer-interface mutant (Q9WZX7 whole entry E20A/D21A/L22A/E24A/S26A/Y27A/T28A/E30A/K31A, chain 2 of 2): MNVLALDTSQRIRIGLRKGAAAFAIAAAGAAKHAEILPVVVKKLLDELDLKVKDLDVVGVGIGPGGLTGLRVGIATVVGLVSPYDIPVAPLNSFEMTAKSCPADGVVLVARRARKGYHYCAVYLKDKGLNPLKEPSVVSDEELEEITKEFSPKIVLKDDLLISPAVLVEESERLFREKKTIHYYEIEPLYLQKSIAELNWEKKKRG

[5] = molecular target: TmTsaD;TmTsaB (Thermotoga maritima;Thermotoga maritima, UniProt Q9WXZ2;Q9WZX7 1-327;1-206, |); experiment: EMSA; TsaD2B2 tetramer; EMSA: 1 uM 6-FAM-tRNA, 0-100 uM protein, 2% agarose, 20 mM Tris-HCl/50 mM glycine pH 8.5 running buffer (loading buffer for native gels 20 mM Tris-HCl pH 7.5, 300 mM NaCl, 25% glycerol); MST: 10 nM tRNA, 20 mM PBS pH 7.5, 300 mM NaCl, 0.05% Tween 20, 25 C; settings: protein: recombinant;recombinant; tags: ;; chain copies: 2;2; label: 5' 6-FAM; tRNA cloverleaf
Chain of TmTsaD;TmTsaB (Q9WXZ2 whole entry, chain 1 of 2): as the sequence (Q9WXZ2 whole entry, stated change not applied, chain 1 of 2) above
Chain of TmTsaD;TmTsaB (Q9WZX7 whole entry, chain 2 of 2): as the sequence (Q9WZX7 whole entry E20A/D21A/L22A/E24A/S26A/Y27A/T28A/E30A/K31A, chain 2 of 2) above, with A20E, A21D, A22L, A24E, A26S, A27Y, A28T, A30E, A31K counted along it

[6] = molecular target: EcTsaD;EcTsaB (Escherichia coli;Escherichia coli, UniProt P05852;P76256 1-337;1-231, |); experiment: EMSA; TsaDB dimer; EMSA: 1 uM 6-FAM-tRNA, 0-100 uM protein, 2% agarose, 20 mM Tris-HCl/50 mM glycine pH 8.5 running buffer (loading buffer for native gels 20 mM Tris-HCl pH 7.5, 300 mM NaCl, 25% glycerol); MST: 10 nM tRNA, 20 mM PBS pH 7.5, 300 mM NaCl, 0.05% Tween 20, 25 C; settings: protein: recombinant;recombinant; tags: ;; copies: 1;1; tRNA cloverleaf
Chain of EcTsaD;EcTsaB (P05852 whole entry, chain 1 of 2): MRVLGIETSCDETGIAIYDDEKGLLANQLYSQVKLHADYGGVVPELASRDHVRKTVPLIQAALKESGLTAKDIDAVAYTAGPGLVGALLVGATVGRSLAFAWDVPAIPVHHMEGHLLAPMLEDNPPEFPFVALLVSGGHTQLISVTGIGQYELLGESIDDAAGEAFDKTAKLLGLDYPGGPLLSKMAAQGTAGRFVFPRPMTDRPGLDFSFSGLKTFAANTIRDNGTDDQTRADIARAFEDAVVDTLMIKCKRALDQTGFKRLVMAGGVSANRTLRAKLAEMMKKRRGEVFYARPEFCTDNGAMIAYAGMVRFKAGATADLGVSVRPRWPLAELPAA
Chain of EcTsaD;EcTsaB (P76256 whole entry, chain 2 of 2): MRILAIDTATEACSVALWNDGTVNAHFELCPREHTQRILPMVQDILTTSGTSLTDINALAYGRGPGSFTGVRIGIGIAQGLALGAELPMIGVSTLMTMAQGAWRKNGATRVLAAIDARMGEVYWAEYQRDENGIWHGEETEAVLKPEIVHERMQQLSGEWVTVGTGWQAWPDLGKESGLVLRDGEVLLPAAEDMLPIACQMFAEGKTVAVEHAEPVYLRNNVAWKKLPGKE

B1: A. aeolicus tRNALysUUU (structured_RNA)
RNA: GAGCCGGUAGCUCAGUUGGUAGAGCAACGGCCUUUUAAGCCGUGGGUCGCGGGUUCGAGUCCCGCCCGGCUCACCA
- Kd [1]: ~1160 nM
- binding result [2]: binds
- binding result [3]: binds

B2: T. maritima tRNALysUUU (structured_RNA)
RNA: GACCCGGUAGCUCAGCAGGCAGAGCACCUGACUUUUAAUCAGGGGGUCGUGGGUUCGAAUCCCACCCGGGUCACCA
- Kd [4]: 1720 nM
- Kd [5]: 1200 nM

B3: E. coli tRNALysUUU (structured_RNA)
RNA: GGGUCGUUAGCUCAGUUGGUAGAGCAGUUGACUUUUAAUCAAUUGGUCGCAGGUUCGAAUCCUGCACGACCCACCA
- binding result [6]: no binding
